Earlier results in publication PMC5800599.

Biological target: FcγRIIIa/CD16A (Homo sapiens) (UniProt P08637)
Sequence (P08637 17-254): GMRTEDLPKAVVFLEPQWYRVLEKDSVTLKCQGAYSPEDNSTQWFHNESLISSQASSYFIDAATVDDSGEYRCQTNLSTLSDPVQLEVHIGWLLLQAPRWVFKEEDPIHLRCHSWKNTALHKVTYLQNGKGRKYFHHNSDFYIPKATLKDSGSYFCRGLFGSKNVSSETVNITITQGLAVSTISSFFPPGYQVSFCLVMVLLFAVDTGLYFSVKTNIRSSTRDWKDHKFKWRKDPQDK

Kd: 550 nM
Substance: hIgG1 Fc Fc (from UniProt P01857)
